Laboratory results reported in US9175313B2, “Three-dimensional structure of isoprene synthase and its use thereof for generating variants” (Danisco US Inc., priority 2009, dated 2015).
Residue numbers refer to the chain shown, from its start. In names and notes the source's numbering stands.

B1: D345R: P. alba IspS variant (protein, UniProt Q50L36 38-595, looked up, variant D345R)
Isoprene synthase, …: CSVSTENVSFTETETEARRSANYEPNSWDYDYLLSSDTDESIEVYKDKAKKLEAEVRREINNEKAEFLTLLELIDNVQRLGLGYRFESDIRGALDRFVSSGGFDAVTKTSLHGTALSFRLLRQHGFEVSQEAFSGFKDQNGNFLENLKEDIKAILSLYEASFLALEGENILDEAKVFAISHLKELSEEKIGKELAEQVNHALELPLHRRTQRLEAVWSIEAYRKKEDANQVLLELAILDYNMIQSVYQRDLRETSRWWRRVGLATKLHFARDRLIESFYWAVGVAFEPQYSDCRNSVAKMFSFVTIIRDIYDVYGTLDELELFTDAVERWDVNAINDLPDYMKLCFLALYNTINEIAYDNLKDKGENILPYLTKAWADLCNAFLQEAKWLYNKSTPTFDDYFGNAWKSSSGPLQLVFAYFAVVQNIKKEEIENLQKYHDTISRPSHIFRLCNDLASASAEIARGETANSVSCYMRTKGISEELATESVMNLIDETWKKMNKEKLGGSLFAKPFVETAINLARQSHCTYHNGDAHTSPDELTRKRVLSVITEPILPFER
B2: D345E: P. alba IspS variant (protein, UniProt Q50L36 38-595, looked up, variant D345E)
Isoprene synthase, …: B1 Isoprene synthase, … with R308E
B3: D345N: P. alba IspS variant (protein, UniProt Q50L36 38-595, looked up, variant D345N)
Isoprene synthase, …: B1 Isoprene synthase, … with R308N
B4: D345P: P. alba IspS variant (protein, UniProt Q50L36 38-595, looked up, variant D345P)
Isoprene synthase, …: B1 Isoprene synthase, … with R308P
B5: D345Q: P. alba IspS variant (protein, UniProt Q50L36 38-595, looked up, variant D345Q)
Isoprene synthase, …: B1 Isoprene synthase, … with R308Q
B6: D345K: P. alba IspS variant (protein, UniProt Q50L36 38-595, looked up, variant D345K)
Isoprene synthase, …: B1 Isoprene synthase, … with R308K
B7: H515H: SEL member with the wild type residue at site 515 (wild type codon substituted) (protein, UniProt Q50L36 38-595, looked up)
Isoprene synthase, …: B1 Isoprene synthase, … with R308D
B8: D345Y: P. alba IspS variant (protein, UniProt Q50L36 38-595, looked up, variant D345Y)
Isoprene synthase, …: B1 Isoprene synthase, … with R308Y
B9: D345A: P. alba IspS variant (protein, UniProt Q50L36 38-595, looked up, variant D345A)
Isoprene synthase, …: B1 Isoprene synthase, … with R308A
B10: D345I: P. alba IspS variant (protein, UniProt Q50L36 38-595, looked up, variant D345I)
Isoprene synthase, …: B1 Isoprene synthase, … with R308I
B11: D345G: P. alba IspS variant (protein, UniProt Q50L36 38-595, looked up, variant D345G)
Isoprene synthase, …: B1 Isoprene synthase, … with R308G
B12: D345L: P. alba IspS variant (protein, UniProt Q50L36 38-595, looked up, variant D345L)
Isoprene synthase, …: B1 Isoprene synthase, … with R308L
B13: D345V: P. alba IspS variant (protein, UniProt Q50L36 38-595, looked up, variant D345V)
Isoprene synthase, …: B1 Isoprene synthase, … with R308V
B14: L469L: SEL member with the wild type residue at site 469 (wild type codon substituted) (protein, UniProt Q50L36 38-595, looked up)
Isoprene synthase, …: B1 Isoprene synthase, … with R308D
B15: D345T: P. alba IspS variant (protein, UniProt Q50L36 38-595, looked up, variant D345T)
Isoprene synthase, …: B1 Isoprene synthase, … with R308T

assay: DMAPP assay of site evaluation library (SEL) lysates with ELISA protein quantitation: specific activity ranked as performance index; format: biochemical; conditions: primary SEL screen; activity on DMAPP per unit weight relative to the parental molecule (parent = 1)
Description: 1. Prepared Patch Plates from Glycerol Stock Plates. Using a V&S 96 pin Replication Tool, cultures were patched onto a LB Agar 35 CMP/50 Kan large patch plates from overnight glycerol stock plates. Plates were incubated at 30° C. overnight for 20 to 24 hr. Cultures can be stored at 4° C. for up to a week.
2. Prepared Overnight Growth Plates. 500 mL of LB 35 CMP/50 Kan media were prepared. 300 μL/well of LB 35 CMP/50 Kan media were dispensed into deep 96 well plates (VWR). Using a V&S Replication Tool, the patch inoculum was transferred into deep 96 well plate by touching the tool pins to respective patch and using a circular motion to coat the pins with inoculum. The media was inoculated by dipping the tool then shaking the pin within the well. The overnight growth plates were sealed using a Breathe-Easier Sealing Membrane (Diversified Biotech). The plates were incubated in a Vertiga Shaking Incubator at 30° C. with shaking at 800 rpm overnight for 16 to 18 hr.
3. Prepared Day Growth Plate. Deep 96 well plates were prepared by dispensing 588 μL/well of LB 35 CMP/50 Kan media. Overnight growth plates were removed from the incubator. Overnight cultures were diluted 50-fold and 12 μL of overnight culture were transferred to day growth plates containing 588 μL/well of LB media containing antiobiotics. Overnight growth plates were sealed with new Breathe-Easier Sealing Membranes. Cultures were incubated at 30° C. and 800 rpm for 2.5 hr. Frozen 12 mM IPTG (Sigma) vials were removed from −20° C. and placed in a hood to thaw.
4. OD600 Plate Read of Overnight, Induction, and Harvest. 150 μL 1×PBS were dispensed into 96 well Costar Read Plates (#9017). 50 μL of culture samples were transferred to Read Plates. The OD600 reading was recorded using a Spectramax Plate Reader (Molecular Devices).
5. Induction. Electronic multi-channel pipettors were prepared to dispense 4×20 μL/well of IPTG (if 4× replicates). The multi-dispense option in the electronic pipettor was adjusted if more replicates was necessary. Thawed 12 mM IPTG was poured into 50 mL or 100 mL sterile reservoirs. 20 μL/well of IPTG into each 600 μL/well culture. Overnight growth plates were resealed. Cultures were incubated at 30° C. and 800 rpm for 4 hr. OD600 readings of plates were recorded according instructions above.
6. Harvest. 400 μL of induced culture were transferred to 800 μL Grenier storage plates. Plates were centrifuged at 3300 rpm for 20 min at 2° to 8° C. in a low speed benchtop centrifuge. Supernatants were discarded, pellets should stay in the conical bottom well. Residual supernatants were slapped out onto a paper towel on the benchtop. Plates were sealed with an aluminum foil membrane (Beckman-Coulter). Plates were covered with a plastic plate lid if available. Storage plates were labeled accordingly and stored frozen at −80° C.
Plates containing induced cell pellets were removed from the −80° C. freezer and allowed to thaw on the benchtop for 30 minutes prior to lysis. 200 μl of lysis buffer (50 mM Tris pH 8, 25 mM MgCl2, 74 μg/ml DNase I, 250 U/ml lysozyme, 0.1% Tween 20, 0.5 mM PMSF) was added to each pellet, and plates were incubated on an Eppendorf Thermomixer at 25° C. for 30 minutes at 1200 rpm. After lysis, plates were centrifuged at 3450 rpm for 15 minutes at 4° C. Supernatants were then removed and diluted 10-fold prior to DMAPP assay. 80 μl of the diluted supernatant was added to 20 μl of the DMAPP working stock (20 mM DMAPP in 0.1 M Phosphate Buffer pH 8.2, DMAPP triammonium salt, Cayman chemicals) in a Zinsser glass block. Blocks were then sealed with aluminum sealing membranes, and incubated in Thermomixers at 25° C. for 30 minutes at 450 rpm. Reactions were stopped by incubating blocks on Thermomixers at 70° C. for 12 minutes at 450 rpm. GC-MS was then used for headspace measurements to calculate the amount of isoprene produced by each lysates.
Headspace Assay. […]

**Q.** For B1, which performance index is on record?
**A.** Its performance index is 0.40.

**Q.** Which performance index does the source give for B2 here?
**A.** Its performance index is 0.61.

**Q.** For B3, which performance index is on record?
**A.** The performance index was 0.58.

**Q.** For B4, which performance index is on record?
**A.** The performance index was 0.35.

**Q.** With B5 as the molecule, how does the performance index read?
**A.** The performance index was 0.56.

**Q.** With B6 as the molecule, how does the performance index read?
**A.** The performance index was 0.69.

**Q.** For B7, which performance index is on record?
**A.** The performance index was 0.81.

**Q.** Which performance index does the source give for B8 here?
**A.** The performance index was 0.84.

**Q.** With B9 as the molecule, how does the performance index read?
**A.** The performance index was 0.50.

**Q.** Which performance index does the source give for B10 here?
**A.** The performance index was 0.73.

**Q.** Which performance index does the source give for B11 here?
**A.** The performance index was 0.55.

**Q.** With B12 as the molecule, how does the performance index read?
**A.** Its performance index is 0.65.

**Q.** With B13 as the molecule, how does the performance index read?
**A.** The performance index was 0.51.

**Q.** For B14, which performance index is on record?
**A.** Its performance index is 0.96.

**Q.** Which performance index does the source give for B15 here?
**A.** The performance index was 0.56.
